From the DeepSol protein solubility set

Assay: soluble on expression in E. coli; label from the status in PepcDB or PDB records

Sequence	soluble on expression in E. coli
MAHHHHHHMKYGQVVVGPAGSGKTNYCKLMKEFMKIKKRNCYVVNLDSASEEYYYERKKKAINTTSNIEKELKQYYDTIYDIDIRNYVDVNSLMEDQMLGPNCALLRSVELLYENSYLLEDELNNYDDDENYFIIDTPGQIELYTHTDYFKKILSIFTDQNIRLIVVFLVDISFISSNTKLLSAYLTSLSTMINFELPHINILTKCDLLASKNYYQELRKFKHNNNFFFQRKLYKKINKKIKGGRGSRFFLNDKAEQSDGEGKRPSDDLGDTFLKEMECINGDKSFKDEYILCSDYDKRSVSSFSSASMSEGRSEKFGKNSSDEHSSSSVRSEEIEEKIYQKNYEKLNDILSLDPHDIVMTANKCMSRKYYKLNNAFAHIIEDFNLVSFIPLNIYDDDNVDFIINSIDMIIQYGEDKDVNDNYDM	not soluble
MAHHHHHHMLANYDYESDLRGRTDELGRAQHVDAYDKHPTFLESPYAGQEDLLRDAPQSYMDGPPPGYGGHDAYEHVDMNGGGYDLPLQPQAQTQAVDTRRLSKDRLARGGLNIFSWSTDAPTLNHPREVRERDCAELQRLRPVDSAAQRDKEVREKFEGNTQSRFLCFSESDSPGKRRGVRVFNPNNKNGNLNSGTGHENPIQNRFNEEPQPFKIRQQQPRPLPQQNLPPAGRATHSNRQESGGIPGFAGMGEGRQHNARRGRGSYRG	soluble
MAHHHHHHMLECNTNSALMEAHFGVVHADQLVPRALSSHAAAAQLSGASKPDKTPTPSLPPGPFIVMGLYGRNVLVLIADGEGQTAVQIHVTRGVAEVAETFRKVAGTPLPPPALPLEPLSVPASPPESTMVAEAAAASRLVANDEVSQERPQAPETERREDQAGPVPATVTCIVAEETDAFMAPAADIAAAAAAEAQLCKDKAAGMRGVEGVCKEVGTATPVADEERHGGPPPTKEVILTDLHKAGETAAHACSSVVVEISQGVSISAASAPRTWRWSSTTSSSASSSSFDSHASQRLRQQQQQSRLEQIGEEQAHRSGPSTGRASAPSTPTDKVVEEVAEAWPTYGAQLLESAEEVTVVPAVTPATDDAPPLMTLPAAEHAMTSQNGEGVFQAEAAIGVVEAANTKTPGEKDVHYHDDGVVSADASLHGQSLLQLPEKDLSAPEGESEKHLQLGSSLAVQFFADHTPSLLPASSSMPRPSQQQHTGDAQEASLGTEVSFDEDGVDAHRLPATLESDCEERVQHVSGADADDVAGPVIAFQASSLLASVEQRGWANQAPPVRHVAIPAGEEVAVTTAMARSATAFTPSYSPPPASPADLRAAPRVWGAQGTSYPTSGPSPCAAAVGLQHHSAATPFTNFLKAYAVYVLGTHGAASGGESKQLRNGTAPHMNECAAGAGEASRGVAELASILDFYREQPLARIMEATAIQRRCRAAWNEVIASTPASAAAQVGSDVEVCKLKASASTTVFTELCVDELVSLLAIVHYPSPRQDG	not soluble
MAHHHHHHMLKRSGTICSLQSVVRGAAKIAAAIVDASVGNVNVVDNSHNGEGGTPARAAGRSHTSSPPEVLPRSVVTQLHESKDDLRKNAVYMSVPSTRITRAAGFASLFVQLGWDHLVDRNGEGILSSQSHKRVVNTLRRMRGVVLKLGQMLSIQDPATVPQYVLQLFEQVRDSAYAMSREQLDQTLAKEYENINWRKDFFLEFDDEPIGAASIGQVHRATIKGEGDTQIEHVAVKVQYPGVATSIDSDIANLKMLISLHLLPPGMFVDRILQDLRQEFLLECRYKIEAAKQVRYAALIKQEPELQEVFVVPKVYESLSTENVLVTQFVTGIPVDRLANISGVQDLKNYVAERMLLLTLTELFRWRFMQTDPNYANFLFDAEKNKISLIDFGAAREYSKEFVKDYMDVVAAAARQDRDRIIEKSIKLGFLTGNEMKPMLDAHAASVELLGRPFRHHDKPFDFSAENLPSKIQEHVPTIIKLRLRPPPTPVYSLHRRISGIILLATKLKATVNSGEMFWNIYNSCRTNYE	not soluble
MAHHHHHHMLQPFQLLQSLVSPIVGVSAKVTVGNQAKDDFLLKTLAIDKKKLDPSYFEKYDNLKWEGKIIAIGDIHGDMESLKLILRHANLINENDEWIAENVLLVQVGDVLDRGIYGPLIYNYLFKLQKEAPLKKSKVLLIMGNHEQLNMCGYFNYVNQKEVEIFFKNNFNYRLFHFVSTAGEYFKKLIRLPVIAKVNDILFVHAGISKQISSLSLQTIRLKTRLQIENMCKILSYDKSRDYVNREGVLWYDHVSRTAPYDEKQACAILSHVFNKYGAKHLVVGHTKQMTHEISTYCNGGLFLIDTGMSLFMNNGQPYPNYLVAENGIFKSVHLNVEVNKKSKYCDSLEIELRSPNKQSFCIHAKETLLSPPNGG	not soluble
MAHHHHHHMLRGTPVRRASLRYRRPYWMMFLKGVDNWKIYTVIQQPDHQRTEMLYQAWLGGLDRPYTRPKCMANQPLWLSKKRHMLRKERLDGPETPLEKYVLEWHKKFHSFQGTERPTPDDLHTALDLVERPLDLSYALQLLGQCRNLNNIRFAKETFLVFLEACLRVGRRDCAEYALEHAEPLGFWFIDEDHRRYLQGEQTWYKLSPLDNLYYPVEENAKLNEGRKPITRLSPATESPGSGTAISDGEPSTDVEGETTVDDEIAQLEAELAALEREGGGK	not soluble
MAHHHHHHMLRVSCRFFGALQEIFSRGQGVWNLDFGNSPTTEDLIFNSAPKTSTPPFHVLDLEGNIVNKINEPVVPKETLVKIMETMIRSNTIDNILLEAQRQGRISFYLTALGEEATVVGTAAGLEIRDEAFLQYREAGFLLYRGYNIPQLVAQCMGNVEDVLKGRQMPIHYGSRELNVHMVSSPLATQIPHAAGAGYAFRLENEELSDESKSRVAVVIFGEGAASEGDFHGGVNFAAATGSNTLFVVRNNGYAISTPARVQYKGDGVLARGIGYGIPSARVDGQDVLAILQAVQQARQIIRTTNQPVLIEALCYRLQHHSSSDDSGMYRSSDEIENFLALSPLDRFEKFLVKRDLWTAEHTGALAKQVREELLQELRRQELLPHWPADVMHDDVYKVKTPDLVKAQKELQAHYERNRGFYGK	not soluble
MAHHHHHHMLSLPRDHHYHAHHSGTEFVPFDQVIGITPDGVPVISNGNEFHFSNLESVTPSYQALCSSVRKAPVIVPCTKLGAKWQCVEFARRYLASRKAVWTASMPIAADMLRAEPPFVHVQDSTPVEFTRTPNRSHGPAPAMSDIIVWDQSEETPLGHVAVVTEVLPEAVRVAEQNQGFERWPQGMLYSREISMQRSSAGTVELVDEDSVLGWVTLQCPYYDFRDGDLADKFRIATGPGCIVRQPFPKHVELPWVQPEERCDFYLKRSLAIGGNVGDDARAEECDVPSAFFFYFLDY	not soluble
MAHHHHHHMMRLLRNNVKNMFLKNCFLVRNTNVKCWRTDRFHNYNMWNTVENNGIRGFSSSSFEEIKKMNMFTAINSAMHNVFESNPNSVLLGEDVAFGGVFRCSLDLLKKYGNMRVFNTPLCEQGIIGFAIGLAENGFTTIAEIQFGDYIFPAFDQIVNDVAKYRYRSGSSFDVGKLTIRSTWGAVGHGGLYHSQSPEAFFAHAAGIKIIVPSDAYKAKGLLLSAINDPNPCLFFEPKILYRSSVCDVPTGPYQLELGKADVVRQGSDVTIVTWGSLVHKMKNAAEILSKKHNIECEVIDLQSIIPWDIETVQKSVEKTGRLLITHEAQLTNGFGAEIAAKIQERCFYNLHTPIKRVCGYDTPFPHVYEPFYMPDAHKVIYEVKKMMK	not soluble
MAHHHHHHMMSTASKILAILREAMRKRSLSALIIPSSDPHNSEYVKDEYKCRAYITNFKGSAGTCLITMNEAYLWTDGRYWLEASQSLYPEWTLMKDGHPDVPRLENWIQLNLGSDVLVGMNNHLSTVAEWERRRKMFNLVSVPEMVQPLMPLVENPVSKLYARPEEFCGMRCGEKAAALMEEMERQKCDALVLSALDEVAWLTNLRGSDVPFNPVFYAYGVVRCCSPPKVHLFVDAVMSEEQGPSLELHPYTALESYLRTIPAGTTFLVDEYQTSQWLFTLLESLGMRIKGVACGPAQKLKAVKNAVEIEGFRRCHVRDGVALTRYLAWLHDTVAVKGDTSVTEYSAAQRLEDFRREGEHFVQLSFSTISSVGPNAAIVHYVAPREGSATIVPDQLYLVDSGAQYLDGTTDVTRTVCFREPGDKEREAYTLVLKGNLALHSAVWPTGTSGHSLDVLARAALWKCGLNYAHGTGHGVGSFLNVHEGPQGIGLRPTPTEATLAAGMVMSNEPGYYKDGEFGIRIENLELVVDVATKHSKKGFLTFDTLTMVPLCRELIDVSALTEAERLQVNAYQQTVRETLLPHLRRCNDSCAIAYLEHHTATL	soluble
MAHHHHHHMMYSKNDEFNVKKEMDMNLKCDNVNLDIWNTSFLNNETLNEDIFIHIGNKLLKMYYTTNHNIPSETLYSLLYEMKNGYNNVPYHNSIHAAMVTHHCNVLVSNLNTANILRDNELGALFVASLGHDIGHFGRTNIFLKNCCNFLSIIYNDKSILENYHCSYLFNILLKDENNIFKNEDPKCLLALRQQIIELILATDMSKHIKILAQFRIKSIKIKSYIEKNIILCLKMIIKAADLSHNCVDWSEHYQWVKRLVNEFYYEGDELFQMGYKINPLFDRNCHNNFIQIQRTFLKELVYPLIISLKTLDNTSITQDMINNVKRNYSKWTKI	soluble
MAHHHHHHMNDETKVFNKCFKKISNCYTLNKKGEKENSTGNQFVLHNCIQTLLSDPIVVLYTDNNYICTGSLTGKVCLYKITIKENKETNTNISYVYNNNNNITDDEKKCINDLNNREELKKENYSKSTIDDVVISKKELNNHNNINNNNNNNNNNNNNSEIIKKYHILCMFRNNSIKSIYIDKNNIYICYESCIDVFCVRSYQFIQKINLDVTNNKQVIYYENYILFNNSKSLFIYDITSNFSSYFYKNFLKNIVIFDFNINYLLCYKNNFGKCHIRVLQIFADAQKCEHELIFCVDFSSKFISHGKFLDDEKIIVAKNGKRLIIFDFKKAIDMYRIRKLKKKILDIHKSVENMLFILVENQIFIFNLSTFVFYKTVQLPKGLFYFKWSYFIRYKNRKIIFSSDKGVYYIDYSIEENV	soluble
MAHHHHHHMNEDAMKILNKCSGEKKKGEDLNSCNLLEYYKTKYSSIDIEKAKLILKEQFLIPDFREKQLECLNSIKRFEHVLNIMPTGGGKSLIYQVLPLIIEGISIVISPLISLIQDQIISLRNKKIVAETINSSLNKKENERILDILKSQDLGNLKVLYITPETATSGYFIDILYELYINKKISLISIDEVHCISTWGSDFRKSYRNLNKILDICPYVRTYCCTATATKFVEKDIIRNLNFYIFNKDCDNNINNNNINNNNNIHNNNKYDDHNNNCKVLNIVRTSFNRPNLKYIIIYSDLIKDEKKNSVCDIINEKRNKGKIGIIYCFKRNTCDEISKYLREKGIQALSYHAGLTNNTRKRIQQKWISGKTNILVATIAFGMGIDRKDVSFIIHYNLPKSIENYYQESGRCGRSGHISFCYLFYSKEDVEKLSYIIKTSFAHLDMHDVNIEKKYEKEIYNLECVHNLCINEKCIRSQILSYFGETYPNKNLQTNNTSDHNKQTYKNQTHVEKYNFDTANMYHPSDQNKDNLTDEHFCCSFCYDTKGSRIKIQKVINLYENKKGSNISQFYSKGETHEYNYLYTNNGKHKLYDDDTYYSPSGEEPREKRSTNYYNKYGDKYGDKYDDKYDDKYDEKYDDKYGDRKLQEGIYKLNNKKIKGYIPFQSASSIIPKQIRDKGIIEVMKELEKREEELNEKTKNDQEKHKVNKMNLFKSNSMNVKRKHVFSSFKIPRKI	not soluble
MAHHHHHHMNGEVSVERKFSPSQPGYGSEGCRQSMGTTTNNGARRFSATELGRTVGMPYSFDTMRYLKDVMRRREDIHTMRVMPKTHLLAQLVLLEQSGREMLIHQERFCRQQIAHKRDDERSKREEQRLQQKNRDRLEEMKRKQVEELAALKEGVTSFQRQIDAEVKEKLRIVCMLQPRMNVAAAVLAEVKNEASPFLLLPELMEEEKRVAKALKADSRYSKSSADSGAVPHWMRTCVAGSFNVAAILQDAPYRATVDDAVKVTNAFLRKVVVVRDVNDRSVVGWVHVRAGSDPATLATELVRLPAPEELPDQGNIGVVWPKEDFLELSRRAKANNNVETQQLLQSVLGISSASLHCVGLTTHEFSKKEVDTIGSLASV	not soluble
